Data published in paper PMC6527163, “Proteomic discovery of substrates of the cardiovascular protease ADAMTS7” (The Journal of Biological Chemistry, 2019).

T1: ADAMTS7-T8 (human, UniProt Q9UKP4 237-1630)
T1 construct: signal peptide in the construct; human ADAMTS7 cDNA including the native signal peptide, truncated after Pro-1630 (T8); The construct is made as a zymogen; The stated enzyme concentrations are active protease, found by active-site titration with TIMP-4; also called purified ADAMTS7-T8; source: HEK cells stably expressing ADAMTS7-T8, conditioned medium, purified (anion exchange chromatography, gel …)
T1 sequence (looked up): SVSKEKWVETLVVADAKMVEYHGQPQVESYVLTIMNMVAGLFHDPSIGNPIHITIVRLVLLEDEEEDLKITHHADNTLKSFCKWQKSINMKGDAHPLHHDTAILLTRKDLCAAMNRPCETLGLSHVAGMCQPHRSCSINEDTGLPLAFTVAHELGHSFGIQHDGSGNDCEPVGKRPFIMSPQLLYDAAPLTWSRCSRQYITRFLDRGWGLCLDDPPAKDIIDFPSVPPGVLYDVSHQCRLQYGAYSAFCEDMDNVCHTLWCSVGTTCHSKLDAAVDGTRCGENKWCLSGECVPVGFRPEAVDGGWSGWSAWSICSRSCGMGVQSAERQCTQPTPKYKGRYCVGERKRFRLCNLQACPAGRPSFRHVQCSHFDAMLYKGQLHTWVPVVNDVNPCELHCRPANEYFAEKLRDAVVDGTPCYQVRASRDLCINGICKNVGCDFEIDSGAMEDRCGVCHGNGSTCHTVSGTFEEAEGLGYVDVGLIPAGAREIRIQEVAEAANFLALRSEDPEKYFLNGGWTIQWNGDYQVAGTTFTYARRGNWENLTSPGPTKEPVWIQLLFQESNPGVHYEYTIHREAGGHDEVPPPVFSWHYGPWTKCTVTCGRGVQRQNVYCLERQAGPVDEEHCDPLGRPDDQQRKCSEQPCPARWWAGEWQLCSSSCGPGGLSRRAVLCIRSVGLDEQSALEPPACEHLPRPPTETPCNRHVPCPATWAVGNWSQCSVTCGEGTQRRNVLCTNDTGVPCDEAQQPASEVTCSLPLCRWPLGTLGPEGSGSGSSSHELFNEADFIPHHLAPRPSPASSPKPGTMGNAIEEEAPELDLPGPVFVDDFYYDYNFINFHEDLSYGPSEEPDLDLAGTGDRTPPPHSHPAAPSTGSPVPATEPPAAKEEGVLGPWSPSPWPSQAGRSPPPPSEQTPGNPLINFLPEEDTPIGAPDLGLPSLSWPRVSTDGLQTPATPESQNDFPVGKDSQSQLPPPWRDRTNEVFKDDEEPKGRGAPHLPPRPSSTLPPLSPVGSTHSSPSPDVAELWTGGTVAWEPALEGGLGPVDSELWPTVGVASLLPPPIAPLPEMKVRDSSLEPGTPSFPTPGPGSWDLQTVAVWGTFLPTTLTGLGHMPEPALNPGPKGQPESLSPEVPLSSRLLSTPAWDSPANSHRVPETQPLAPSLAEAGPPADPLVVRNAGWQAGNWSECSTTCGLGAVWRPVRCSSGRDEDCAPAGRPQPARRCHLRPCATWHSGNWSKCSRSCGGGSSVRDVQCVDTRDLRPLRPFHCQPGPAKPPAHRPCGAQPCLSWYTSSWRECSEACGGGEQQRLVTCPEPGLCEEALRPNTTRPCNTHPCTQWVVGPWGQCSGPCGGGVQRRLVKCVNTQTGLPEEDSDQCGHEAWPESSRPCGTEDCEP

B1: TIMP-4 (natural protein, human, UniProt Q99727 30-224, looked up)
chain: CSCAPAHPQQHICHSALVIRAKISSEKVVPASADPADTEKMLRYEIKQIKMFKGFEKVKDVQYIYTPFDSSLCGVKLEANSQKQYLLTGQVLSDGKVFIHLCNYIEPWEDLSLVQRESLNHHYHLNCGCQITTCYTVPCTISAPNECLWTDWLLERKLYGYQAQHYVCMKHVDGTCSWYRGHLPLRKEFVDIVQP
notes: recombinant human TIMP-4 (R&D Systems); No catalogue number or tags are stated; source: bought: R&D Systems (recombinant human)
B2: TIMP-3 (natural protein, human, UniProt P35625 24-211, looked up)
chain: CTCSPSHPQDAFCNSDIVIRAKVVGKKLVKEGPFGTLVYTIKQMKMYRGFTKMPHVQYIHTEASESLCGLKLEVNKYQYLLTGRVYDGKMYTGLCNFVERWDQLTLSQRKGLNYRYHLGCNCKIKSCYYLPCFVTSKNECLWTDMLSNFGYPGYQSKHYACIRQKGGYCSWYRGWAPPDKSIINATDP
notes: recombinant human TIMP-3 (R&D Systems); No catalogue number or tags are stated; source: bought: R&D Systems (recombinant human)

Target: T1, ADAMTS7-T8
Test: enzyme inhibition assay (densitometry of LTBP4S-A cleavage on SDS-PAGE/Coomassie Blue); apparent Ki; TIMP (1.75-60 nM) pre-incubated with ADAMTS7-T8 for 1 h at 37 °C, then 18 nM ADAMTS7 and 10 μM LTBP4S-A for 17 h at 37 °C; 20 mM Tris, pH 7.5, 150 mM NaCl, 10 mM CaCl2
Conditions: both partners purified

Binder	Ki [nM]
B1	13
B2	49
